Reference: the supplement of paper PMC12764529
± gives the half width of the 95% confidence interval.

Tests used:
[1] = folding stability dG unfold from trypsin proteolysis; higher = more stable
How it was run: (§1)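 How resistant each design was to proteolysis was captured as K50, inferred by Bayesian fitting of sequencing counts. Unfolding free energy was then derived relative to a sequence-predicted unfolded-state K50 and a shared folded-state K50, per protease or combined. Digestion used trypsin and chymotrypsin at 11 threefold-diluted concentrations plus a no-protease condition, on mini-proteins under 80 residues without cysteine in a PA-tagged cDNA display construct. Designs were kept only when AlphaFold2 dimer inter-PAE was above 15.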

[2] = folding stability dG unfold from chymotrypsin proteolysis; higher = more stable
How it was run: as §1

[3] = folding stability dG unfold (combined trypsin and chymotrypsin); higher = more stable
How it was run: as §1

Sequence	folding stability dG unfold [1]	folding stability dG unfold [2]	folding stability dG unfold [3]
SAGPADPGFLGTRTVPHPDGVVTVDVYRFAGTRVLITITLPDSTVPVEDPVESEEEALAFADAVVAEVGLSA [r9_758_JUSTAS]	0.637 ± 0.081 kcal/mol	2.27 ± 0.037 kcal/mol	1.66 ± 0.1 kcal/mol
SAGPDKPLKIESIGGKFNPDNGVISIKLKVEDPGDGKTYDYTMQFPVRDPDNGKPYMFTFPMRIKVPDSAGG [r19_129_TrROS]	0.645 ± 0.072 kcal/mol	0.647 ± 0.16 kcal/mol	0.607 ± 0.13 kcal/mol
SAGPEKVREAARELFEKLNLPIVSEEAIEVGDAVLIRFEIPEIGTKITILAPVFENGEIKVIVKIEPVSSAG [r5_888_TrMRF]	1.71 ± 0.069 kcal/mol	1.58 ± 0.032 kcal/mol	1.65 ± 0.091 kcal/mol
SAGPIIIRVKYPDGRQIDINPENPWQIQIWDPGGKKETYPFDSNEDAKDKVVDWLGEEHGWPIKDVEIVSAG [r5_119_TrROS]	0.373 ± 0.043 kcal/mol	0.35 ± 0.059 kcal/mol	0.403 ± 0.11 kcal/mol
SAGPKIRTIIKEILKELNPDRPIEIHTHPDGFIIIVNPDDGRFIMIKIDPDGDIKISEVVPAEEMKKMMSAG [r5_852_TrROS]	1.84 ± 0.033 kcal/mol	1.17 ± 0.058 kcal/mol	1.49 ± 0.13 kcal/mol
SAGPKKKVEIDVHIMIPFKSWEDRELMLYYARKFAPYIARELAKQNGLPPGVDEVKVDVNIMIIPPGQMSAG [r5_436_TrROS]	2.84 ± 0.12 kcal/mol	3.87 ± 0.04 kcal/mol	3.34 ± 0.12 kcal/mol
SAGPKTLLLNIPPGEDVELLIGDKPYRIKVDPERLIGYAFDPETGEIFLIFHDPEKPIALITVFPSPPLSAG [r5_302_TrMRF]	1.56 ± 0.042 kcal/mol	2.46 ± 0.11 kcal/mol	2.18 ± 0.12 kcal/mol
SAGPPEQKIKIKWYPPDDGQPQEIPGPVDDIKDILDKLGWPVTNIETDPDDNEVEIWVPFPNWWLHIKISAG [r5_521_TrROS]	0.884 ± 0.036 kcal/mol	1.79 ± 0.069 kcal/mol	1.53 ± 0.12 kcal/mol
SAGPPGMRMVPFTIELPGKKIEIHVMEYPNGPPQYMVEIEDPNGKPKWTIMVTGPEARDLLEKAGIKFSAGG [r19_90_TrROS]	0.438 ± 0.1 kcal/mol	1.23 ± 0.14 kcal/mol	1.01 ± 0.1 kcal/mol
SAGPPGQPVKTIEIMIEFPPGQTMEEARERVEEIADEIQRKFPKIKSIDVDVQKDDDTYYVNANITIPYSAG [r5_446_TrROS]	0.848 ± 0.048 kcal/mol	0.372 ± 0.19 kcal/mol	0.688 ± 0.19 kcal/mol
SAGPPKTRTVMFPPEDIPKILEELKKLPPDITIHFPDPDPGNWFMIEVTDDEIKIENPGNGEERTIPISAGG [r19_154_TrROS]	-0.712 ± 0.24 kcal/mol	0.252 ± 0.11 kcal/mol	0.0412 ± 0.16 kcal/mol
SAGPPPWMVIRIPFWVKVTPDDGIITIEFKIEIGNKEFKIKITIPIPPELADAPPGETIPIPIWIFIRPSAG [r5_714_TrROS]	3.99 ± 0.16 kcal/mol	5.13 ± 0.062 kcal/mol	4.81 ± 0.13 kcal/mol
SAGPSLEVEVERLPGPYVRITARYSRDVPVEVLVEELRAAAPVEVRVEEDPERDFVTVVAVLPLAPDAGSAG [r5_742_TrMRF]	1.28 ± 0.031 kcal/mol	1.46 ± 0.069 kcal/mol	1.46 ± 0.08 kcal/mol
SAGPTIMIPMPPKESLEEAVEKAIEWIREFFPDNLKPGKKIKIFVHVWDPDNGKQYWVTIEIPIPKGELSAG [r5_916_TrROS]	2.48 ± 0.22 kcal/mol	3.62 ± 0.057 kcal/mol	3.19 ± 0.25 kcal/mol
SAGPVLYRVTITVEVSSSGEKGKTLTLEFLVPPSVSGEEVRDRVLALLKAQGYKVEKITVTVTPLPSSASAG [r14_979_JUSTAS]	4.03 ± 0.21 kcal/mol	5.36 ± 0.13 kcal/mol	5.27 ± 0.14 kcal/mol
SAGPVVLSPDDTVKIGKKELTFFSDGTVSVKYPDGTGESITVTVDPSSGNITLTETFTEPETGTTPVENSAG [r5_33_JUSTAS]	0.473 ± 0.15 kcal/mol	1.48 ± 0.075 kcal/mol	1.17 ± 0.16 kcal/mol
SAGPVVTLTVTVEIEVDGVRVEVTVTATLLPDGTVVITATVKVTLPNGETKTVTVTLTFPPGVDEVVLTSAG [r5_829_TrROS_Hall]	2.62 ± 0.15 kcal/mol	3.42 ± 0.18 kcal/mol	3.06 ± 0.25 kcal/mol
